Several values for one entry are separate records, joined by “and”; a condition that tells them apart may be missing. Equal entries are not always repeated.

The results in this text go back to paper PMC12809912.

For experiment [1], the target named is mouse monoclonal antibody clone 1A8 (anti-DEFA5). The experiment in a line: indirect ELISA. The conditions noted are these: chain shown with the change;; parent: est. 2.6; read off a plot. On the technique in general: ELISA stands for enzyme-linked immunosorbent assay.
Experiment [2] has as its target mouse monoclonal antibody clone 4F5 (anti-DEFA5). The experiment can be described thus: indirect ELISA. To be noted: chain shown with the change;; parent: est. 2.2; read off a plot.
Experiment [3] addresses T1, synthetic DEFA5 peptide residues 54-66 (…) (human).
T1 sequence (peptide): LRTSGSQARATCY
The experiment can be described thus: SPR; synthetic peptides 54-66 (for 1A8) and 52-66 (for 4F5); who was immobilised is not told (Fig. S5).

Experiment [4] deals with recombinant His-tagged human alpha-defensin 5 (DEFA5) construct, residues 23-94 behind a soluble fusion partner (human). The experiment can be described thus: ELISA; indirect ELISA: recombinant DEFA5 coated at 100 ng/mL in carbonate-bicarbonate buffer pH 9.6, antibodies 250-3.9 nM 1 h at room temperature; one-site specific binding fit; two experiments.
Sequence of recombinant His-tagged human alpha-defensin 5 (DEFA5) construct, residues 23-94 behind a soluble fusion partner (human) (Q01523 23-94): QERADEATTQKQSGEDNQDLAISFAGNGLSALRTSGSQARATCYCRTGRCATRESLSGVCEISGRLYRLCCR
For experiment [5], the target named is T2, synthetic DEFA5 peptide residues 52-66 (…) (human).
T2 sequence (peptide): SALRTSGSQARATCY
The experiment in a line: SPR; synthetic peptides 54-66 (for 1A8) and 52-66 (for 4F5); who was immobilised is not told (Fig. S5). (Surface plasmon resonance follows binding to a sensor surface in real time, without labels.)

B1: peptide No. 57 of the overlapping library, DEFA5 amino acids 61-75 (…) A1del (peptide)
chain: RATCYCRTGRCATR
B1: the response in experiment [1] turned out to be 2.6 OD450nm; in experiment [2], 2.3 OD450nm.

B2: mouse monoclonal antibody clone 1A8 (anti-DEFA5) (antibody, V domains shown)
VH: QVQLQQSGAELVRPGASVKMSCKALGYTFFDYEMHWMKQTPVYGLEWIGAIHPGSGDTAYNQKFKGKATLTADKSSNTAYMELSSLTSEDSAVYYCTREGTVVAPFDYWGQGTTLTVSS
VL: DVLMTQTPLSLPVSLGDQASISCRSSQSIVHSNGNTYLEWYLQKPGQSPKLLINKVSNRFSGVPDRFSGSGSGTDFTLKISRVEAEDLGVYYCFQGSYVPYTFGGGTKLEIK
Broadly, the Kd is the constant that tells how readily two partners part at equilibrium. As for B2, the Kd was 303 µM in experiment [3]; 0.0421 µM and 0.0455 µM in experiment [4].

B3: mouse monoclonal antibody clone 4F5 (anti-DEFA5) (antibody, V domains shown)
VH: B2 VH
VL: B2 VL
As for B3, the equilibrium dissociation constant (Kd) is 4800 µM in experiment [5]; 0.0534 µM and 0.0566 µM in experiment [4].
